Four molecules from article PMC8809517, “Cofactor-independent RNA editing by a synthetic S-type PPR protein” can be followed below.

What all share (assay): high-throughput RNA pulldown from lysate on Ni-NTA beads; HRP: 50 mM Tris pH 8, 150 mM NaCl, 1 mM beta-mercaptoethanol, 50 ug/ml BSA, 3 ug/ml yeast RNA, 0.5% heparin; ITC and FP: Tris pH 8, 200 mM KCl, 5% glycerol; MST: 50 mM Tris pH 8, 200 mM NaCl, 1 mM DTT, BSA, heparin, 0.05% Tween 20
What all share (conditions): tags: N-terminal His-eGFP

Series [1] addresses T1, GFP-9S library array, motif 4 ND N98S;D124M (synthetic construct, N98S;D124M).
T1 chain: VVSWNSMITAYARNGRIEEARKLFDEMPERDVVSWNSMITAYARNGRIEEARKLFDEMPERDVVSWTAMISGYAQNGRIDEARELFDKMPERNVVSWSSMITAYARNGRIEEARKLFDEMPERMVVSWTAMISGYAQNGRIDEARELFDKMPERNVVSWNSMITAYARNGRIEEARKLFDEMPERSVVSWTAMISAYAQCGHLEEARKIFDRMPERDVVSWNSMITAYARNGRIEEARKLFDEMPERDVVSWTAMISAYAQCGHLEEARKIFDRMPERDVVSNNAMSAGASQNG

The target of series [2] is T2, GFP-9S library array, motif 4 ND N98P;D124E (synthetic construct, N98P;D124E).
T2 chain: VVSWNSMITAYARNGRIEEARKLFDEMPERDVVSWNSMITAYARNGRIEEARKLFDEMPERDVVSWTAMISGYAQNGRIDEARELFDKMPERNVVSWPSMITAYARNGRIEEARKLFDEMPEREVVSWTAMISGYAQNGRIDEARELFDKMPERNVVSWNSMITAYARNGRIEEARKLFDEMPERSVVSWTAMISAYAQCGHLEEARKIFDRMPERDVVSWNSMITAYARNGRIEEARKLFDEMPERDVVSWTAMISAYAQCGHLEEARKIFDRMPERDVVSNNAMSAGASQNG

Series [3] addresses T3, GFP-9S library array, motif 4 ND N98C;D124Q (synthetic construct, N98C;D124Q).
T3 chain: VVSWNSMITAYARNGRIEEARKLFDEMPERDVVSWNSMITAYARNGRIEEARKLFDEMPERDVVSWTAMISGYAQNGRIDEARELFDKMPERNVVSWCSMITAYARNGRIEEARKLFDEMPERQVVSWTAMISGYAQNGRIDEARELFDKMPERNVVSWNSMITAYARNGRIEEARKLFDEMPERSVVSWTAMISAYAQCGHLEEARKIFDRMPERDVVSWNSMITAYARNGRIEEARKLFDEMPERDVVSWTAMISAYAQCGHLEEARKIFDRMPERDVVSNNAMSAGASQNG

The target of series [4] is T4, GFP-9S library array, motif 4 ND N98T;D124V (synthetic construct, N98T;D124V).
T4 chain: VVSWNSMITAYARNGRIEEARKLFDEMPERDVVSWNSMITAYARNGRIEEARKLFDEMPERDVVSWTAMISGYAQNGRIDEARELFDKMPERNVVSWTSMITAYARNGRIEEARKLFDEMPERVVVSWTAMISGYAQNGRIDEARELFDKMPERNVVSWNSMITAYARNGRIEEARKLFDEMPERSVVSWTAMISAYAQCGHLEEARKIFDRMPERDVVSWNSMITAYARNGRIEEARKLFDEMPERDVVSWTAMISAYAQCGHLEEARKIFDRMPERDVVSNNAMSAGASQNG

Series [5] concerns the target T5, GFP-9S library array, motif 4 ND N98H;D124L (synthetic construct, N98H;D124L).
T5 chain: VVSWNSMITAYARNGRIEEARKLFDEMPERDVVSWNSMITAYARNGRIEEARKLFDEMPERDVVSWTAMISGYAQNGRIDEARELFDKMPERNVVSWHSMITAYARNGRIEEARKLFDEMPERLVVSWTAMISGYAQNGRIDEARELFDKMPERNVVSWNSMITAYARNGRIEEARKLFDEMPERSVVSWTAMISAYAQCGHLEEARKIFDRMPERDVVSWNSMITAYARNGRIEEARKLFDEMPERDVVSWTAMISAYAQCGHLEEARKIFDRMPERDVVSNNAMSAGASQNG

For the molecule AUUACACGUGA (ssRNA) [Cy5-rpoA], the Kd in series [1] (label: 5' Cy5) stood at 120 nM; in series [2] (label: 5' Cy5), 204 nM; in series [3] (label: 5' Cy5), 127 nM; in series [4] (label: 5' Cy5) it was 95.8 nM; in series [5] (label: 5' Cy5), 60.1 nM.

With AUUAAACGUGA (ssRNA) [IR-rpoA-A], the Kd came out at 369 nM in series [1] (label: 5' IRDye 800CW); 386 nM in series [2] (label: 5' IRDye 800CW); 177 nM in series [3] (label: 5' IRDye 800CW); 31.1 nM in series [4] (label: 5' IRDye 800CW); 82.1 nM in series [5] (label: 5' IRDye 800CW).

AUUAUACGUGA (ssRNA) [IR-rpoA-U]: the Kd in series [1] (label: 5' IRDye 800CW) was determined as 160 nM; in series [2] (label: 5' IRDye 800CW) it was 309 nM; in series [3] (label: 5' IRDye 800CW), 143 nM; in series [4] (label: 5' IRDye 800CW), 140 nM; in series [5] (label: 5' IRDye 800CW), 32.7 nM.

In the case of AUUAGACGUGA (ssRNA) [Cy5-rpoA-G], the Kd in series [1] (label: 5' Cy5) is 183 nM; in series [2] (label: 5' Cy5), 220 nM; in series [3] (label: 5' Cy5), 150 nM; in series [4] (label: 5' Cy5), 85.6 nM; in series [5] (label: 5' Cy5), 55.6 nM.
